Data from article PMC5465037.

Target: wild-type desmin, human (human) (UniProt P17661)
Test: co-sedimentation

- percent of desmin pelleted at 22 °C: 83.8%
- percent of desmin pelleted at 37 °C: 93.3%
- percent of desmin pelleted at 44 °C: 94.3%
Substance: wild-type desmin, human (from UniProt P17661 1-470) (natural protein)
